Experimental data from the supplement of paper PMC10126150.
± gives the standard deviation of the averaged measurements.

System: ATP
Assay: switch fluorescence ratio, 500 uM ATP over buffer (Cy3 cluster intensity, sum of 5 cycles each) (fold (ratio)); higher = stronger signal-on switching upon ATP binding; sequences stand for … in TCGTCGGCAGCGTCAGATGTGTATAAGAGACAGTTTTTTTTTTTTTTTTTTTTTTTTT…TC
Settings: aptamer strand: ATP DNA aptamer (quencher-CACCTGGGGGAGTATTGCGGAGGAAGG + anchor), 100 nM annealed; ATP concentration: 500 uM
Method in brief: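 Clusters with intensities outside 100-1000 RFU were excluded. The remaining Cy3-labelled switching-strand clusters on a modified Illumina MiSeq flow-cell had been annealed to 100 nM quencher-labelled ATP aptamer and imaged in selection buffer, then after 15 min with 500 uM ATP at 22 °C, for five cycles separated by NaOH stripping and re-annealing. The fluorescence ratio, averaged per switch-domain sequence, is each cluster's summed target-cycle Cy3 intensity over its summed buffer-cycle Cy3 intensity.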
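Note: ATP exposure 15 min at 22 °C before imaging.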

Row | Sequence | switch fluorescence ratio
1 | GTTACGGGGG | 1.02 ± 0.031
2 | AAGAGTTCGT | 0.955 ± 0.023
3 | GGGATTAGTC | 1.05 ± 0.088
4 | TGGGGGGACT | 1.02 ± 0.029
5 | GGTGTTGAGT | 0.993 ± 0.037
6 | GCTCGGTTG | 1.01 ± 0.022
7 | ACTTATCGGG | 1 ± 0.029
8 | CATTTATATT | 0.986 ± 0.032
9 | AACGTTCATG | 1.02 ± 0.044
10 | CCTGTACCAC | 1.07 ± 0.019
11 | GAAGGTGAGT | 1.03 ± 0.014
12 | TTTCCGTTGG | 1.12 ± 0.17
13 | GGATTGAGGC | 0.968 ± 0.0046
14 | AGCAGTGGAC | 1.23 ± 0.016
15 | GCTTTCATTG | 1.014 ± 0.0046
16 | AATCTTGTGT | 0.985 ± 0.027
17 | ATGCAACCAT | 1.01 ± 0.013
18 | TTTTCTTAGA | 0.977 ± 0.029
19 | TAAGTGACAG | 1.01 ± 0.063
20 | TGAAAAAATT | 1.02 ± 0.071
21 | ATGGCAGACT | 1.02 ± 0.052
22 | GCAGATGCCT | 1 ± 0.023
23 | GGTATAATTT | 1.04 ± 0.044
24 | CGGAACCGGG | 1.03 ± 0.024
25 | GGGGATGTGA | 0.967 ± 0.037

Row | Sequence | switch fluorescence ratio
26 | GTGGTGAGGT | 0.966 ± 0.02
27 | ATATGTGTGT | 0.995 ± 0.018
28 | CGGTACCCAT | 1.01 ± 0.018
29 | ATGCACTGGG | 1.08 ± 0.05
30 | TCCTGGGGTC | 1.05 ± 0.043
31 | AGAGTTGAGA | 1.0102 ± 0.001
32 | CGCTATTGGT | 1.002 ± 0.0043
33 | AGGCCATTGG | 1.04 ± 0.024
34 | CGCCAGATTT | 0.9963 ± 0.0072
35 | TTTGGTGTGC | 1.01 ± 0.022
36 | AACTAGAGAC | 0.975 ± 0.01
37 | TGAGCTAGCT | 1.01 ± 0.033
38 | TGGAAATACG | 1.06 ± 0.013
39 | CTTAGATGGG | 0.9579 ± 0.0064
40 | GATGTAGGGC | 1 ± 0.028
41 | GGATATGAGG | 1 ± 0.018
42 | GGTGAGGCAA | 1.19 ± 0.12
43 | GCTGGGTAGT | 1.01 ± 0.022
44 | GGAATCCGGG | 0.987 ± 0.037
45 | AAGGGAGAAC | 0.986 ± 0.0019
46 | AGTGTACCGG | 0.997 ± 0.01
47 | ATTTGGTAAT | 0.952 ± 0.01
48 | CCGTATGGAG | 0.9959 ± 0.002
49 | GGGTTTCAGG | 1.017 ± 0.0021
50 | TTGACGGAGG | 0.983 ± 0.032

Row | Sequence | switch fluorescence ratio
51 | GGCCTCAAAT | 1.01 ± 0.037
52 | AGTACGTTAT | 1.14 ± 0.026
53 | CGATCGGTTG | 0.9499 ± 0.0033
54 | AAAATATGCT | 1 ± 0.049
55 | TTTACGGAGG | 1.03 ± 0.021
56 | GATGATTTGG | 1.02 ± 0.021
57 | TTTGTTGGAA | 0.99 ± 0.025
58 | AACGGTTGCG | 0.965 ± 0.016
59 | GTTGTGCGGG | 1.02 ± 0.0089
60 | TTATTGGGTG | 1.04 ± 0.024
61 | AGTACGATTG | 1 ± 0.023
62 | TTAGGGGCGA | 0.994 ± 0.012
63 | AAGTTGTATT | 0.9974 ± 0.0019
64 | GTTAATGTAA | 0.9934 ± 0.0059
65 | ATCCGGGGGA | 1.04 ± 0.11
66 | TTGGGGCTGG | 1.01 ± 0.013
67 | TTTGTCAAAA | 1 ± 0.025
68 | GATGAAAGTG | 0.99 ± 0.025
69 | AAAAATAGTG | 1.036 ± 0.0098
70 | ATGGAATGCG | 1.028 ± 0.0089
71 | TGTTGGAGGA | 0.994 ± 0.028
72 | CGGGAGTTCG | 0.992 ± 0.077
73 | GCTTTGGTTT | 0.983 ± 0.022
74 | ATTTGGGTTT | 0.992 ± 0.027
75 | CGCGGGGGAT | 1.03 ± 0.067

Row | Sequence | switch fluorescence ratio
76 | TTCTCACTTG | 1.02 ± 0.03
77 | GAAGAGCCTA | 0.986 ± 0.044
78 | CCAATAGGCA | 1.046 ± 0.0078
79 | AAAAAAGAAG | 1.01 ± 0.021
80 | TTTGGGAAAT | 1.07 ± 0.1
81 | AGAGACTGAG | 1.045 ± 0.0026
82 | GCGGTTTCCT | 1.02 ± 0.037
83 | TTTTGGGGGA | 0.999 ± 0.04
84 | GGGGCATCTT | 1.01 ± 0.046
85 | TTTGAGATTT | 0.9974 ± 0.009
86 | GCTATCGGTT | 1.01 ± 0.024
87 | TGTGTGGCGT | 1.003 ± 0.0042
88 | GGTGAGAAGT | 1.01 ± 0.013
89 | CATTTTGCGT | 0.972 ± 0.035
90 | CTTTTCGGCT | 1.04 ± 0.028
91 | TTCTTCTGGC | 1.017 ± 0.0073
92 | GGGGCGGGAA | 0.982 ± 0.05
93 | TTTGATCTGT | 0.984 ± 0.012
94 | CTGGGCCGGT | 1.02 ± 0.063
95 | CGGATCGGTG | 0.991 ± 0.019
96 | GTTGTTACAA | 1.004 ± 0.0092
97 | ATATTAGGGC | 1.02 ± 0.015
98 | AAAAGCTGGG | 1.02 ± 0.051
99 | TTGGTTTAGG | 0.983 ± 0.022
100 | GTGGGGTGTG | 1.01 ± 0.021

Row | Sequence | switch fluorescence ratio
101 | TCCTAAGGGG | 1.79 ± 1
102 | TTACTCGGGC | 0.999 ± 0.019
103 | CGGGGTGTCT | 1.02 ± 0.071
104 | GTTAGACTAT | 0.99057 ± 0.00092
105 | GATATTTGGT | 0.989 ± 0.048
106 | GCATGGCTTT | 1.01 ± 0.023
107 | AGAGGAAAGG | 1.022 ± 0.0041
108 | GGGGAAGTAG | 0.994 ± 0.018
109 | ATGATGGGTG | 1.01 ± 0.02
110 | AGCTATTTGC | 0.983 ± 0.048
111 | GGTTTATATA | 1.006 ± 0.0018
112 | TGGTCTTTTA | 0.9852 ± 0.0022
113 | GCACGATGGT | 0.972 ± 0.01
114 | ATTGCAGTTT | 0.986 ± 0.022
115 | GTATAAAAGT | 1.01 ± 0.03
116 | GGTTTTCTGT | 0.997 ± 0.016
117 | TAATAATGAG | 0.981 ± 0.011
118 | TTTCCAGGGA | 1.034 ± 0.0029
119 | CGATTTAAGG | 0.9947 ± 0.0063
120 | GAAGGATATT | 1.018 ± 0.0039
121 | TCACGCTTTT | 1.11 ± 0.12
122 | ATATCGGGGG | 1.01 ± 0.081
123 | ATCCTTGGTC | 1.01 ± 0.023
124 | TTATGTGACG | 0.994 ± 0.082
125 | TTTCCTGGAT | 1.04 ± 0.052

Row | Sequence | switch fluorescence ratio
126 | TTCAAATTTT | 1.01 ± 0.015
127 | ATGACTTGCG | 1 ± 0.023
128 | TTTGGAATTG | 0.988 ± 0.016
129 | TTTTGTAGGT | 0.973 ± 0.056
130 | GGTTGAGTTC | 0.948 ± 0.036
131 | CGGGGTGTGT | 1.01 ± 0.023
132 | TTCTAGGGAA | 0.977 ± 0.023
133 | TTTTGACCGT | 0.973 ± 0.037
134 | TTTTACGTAG | 1.09 ± 0.035
135 | GAAATGTTAG | 0.966 ± 0.025
136 | TTATGAGGTT | 1.02 ± 0.026
137 | TTTGGGCCGA | 0.987 ± 0.028
138 | AGTCGTTTTT | 0.98 ± 0.026
139 | CATATGCGTA | 0.9857 ± 0.0015
140 | AGAATCACTG | 1.08 ± 0.04
141 | ATTCGGGATA | 1 ± 0.02
142 | GAGGGCCTTT | 0.968 ± 0.048
143 | GAATGCTGGT | 0.966 ± 0.023
144 | TTTATTCGGT | 1.01 ± 0.074
145 | TTGAAGAGGT | 0.976 ± 0.049
146 | ATATGGTCTA | 0.999 ± 0.053
147 | CTGGGGAAAA | 1.57 ± 0.94
148 | AAAGGCGTAA | 0.997 ± 0.013
149 | CAGGTATAAG | 1.01 ± 0.061
150 | ATTGCTGGCG | 0.939 ± 0.039

Row | Sequence | switch fluorescence ratio
151 | CAACTCCGGA | 1.204 ± 0.0066
152 | TAAGGGCGGC | 0.995 ± 0.043
153 | CCCTGTCGGC | 0.997 ± 0.037
154 | TTTATGCCGG | 1.01 ± 0.029
155 | ATCACAACTG | 0.997 ± 0.15
156 | TTGAGGGTGC | 1.01 ± 0.022
157 | TTGGGTGCCG | 1.03 ± 0.048
158 | TTTGCAGTTT | 0.997 ± 0.024
159 | GGCTTCTTGT | 1.01 ± 0.009
160 | GTTTTTGGAA | 1.05 ± 0.013
161 | CCGGGGTTGT | 1.16 ± 0.22
162 | GGCCGGGGGT | 1.25 ± 0.4
163 | TTTTAGTACA | 1 ± 0.048
164 | AATGCAGGTA | 1.03 ± 0.027
165 | GCAGGGGAGG | 1 ± 0.036
166 | CGTACGGACG | 0.984 ± 0.021
167 | CAAATCAGTG | 1.002 ± 0.01
168 | CGGGGGAAAG | 1.01 ± 0.041
169 | CAGAAAAGCA | 1.03 ± 0.017
170 | TGTTTGGAGG | 0.985 ± 0.022
171 | AGTGGTAAAG | 1.012 ± 0.0029
172 | ACGGTTGTAC | 1.1813 ± 0.001
173 | CGCGGTTGCG | 0.9668 ± 0.0054
174 | GGATGATTTG | 0.968 ± 0.025
175 | TTTTTGAAAG | 0.996 ± 0.013

Row | Sequence | switch fluorescence ratio
176 | GGTGGGATTC | 1.01 ± 0.014
177 | TTGGGGGCAC | 1.024 ± 0.0069
178 | GCGTGTTGTG | 1.02 ± 0.018
179 | TTAAATTTCG | 1.003 ± 0.0035
180 | TAGCTGAGTG | 0.985 ± 0.043
181 | TGTTCTACAG | 1 ± 0.02
182 | AGTAGTAAAC | 1.02 ± 0.016
183 | TTTATTATGT | 0.994 ± 0.034
184 | TTCACTTTTG | 1.01 ± 0.028
185 | TTTGGGGACA | 1.01 ± 0.019
186 | TTTAGTCGCA | 0.998 ± 0.035
187 | GAGTGACTCG | 1.01 ± 0.014
188 | TATTTCCTGT | 0.993 ± 0.011
189 | CGGGTGTAAG | 1.01 ± 0.033
190 | ACGGACGCAA | 3.95 ± 0.66
191 | GAATTGAGCA | 0.996 ± 0.019
192 | GGGGAATCGC | 0.97 ± 0.055
193 | TCGGGCCCGG | 1 ± 0.078
194 | GTCTAACTGC | 0.962 ± 0.033
195 | ATAGACTTCT | 0.9966 ± 0.0064
196 | GAATTTGGGA | 0.997 ± 0.013
197 | TGACCCTTTT | 1 ± 0.077
198 | GAATGCGGGC | 0.99 ± 0.017
199 | CGATGTCAGC | 1.073 ± 0.0036
200 | AAGATAGAAC | 0.9783 ± 0.0068
